Experimental data published in doi:10.1101/2020.01.16.909523 (bioRxiv, 2020).

Target: PE5mt-PPE4mt heterodimer (His6 tag cleaved) (Mycobacterium tuberculosis, UniProt L7N695 1-102; P9WI43 1-180)
Assay: SEC-MALS

Sequence of PE5mt-PPE4mt heterodimer (His6 tag cleaved) (L7N695 whole entry, chain 1 of 2): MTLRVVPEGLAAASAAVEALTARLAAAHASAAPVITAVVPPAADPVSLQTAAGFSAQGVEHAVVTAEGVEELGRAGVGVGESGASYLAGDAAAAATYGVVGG
Sequence of PE5mt-PPE4mt heterodimer (His6 tag cleaved) (P9WI43 1-180, chain 2 of 2): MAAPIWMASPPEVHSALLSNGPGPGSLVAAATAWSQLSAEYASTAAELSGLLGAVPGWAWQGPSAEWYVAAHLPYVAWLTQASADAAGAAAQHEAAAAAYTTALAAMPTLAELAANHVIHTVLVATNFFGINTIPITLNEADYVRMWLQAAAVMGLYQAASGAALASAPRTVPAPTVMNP

B1: EspG3mm (natural protein)
chain: MESMPNAVELTVENAWFIAEMVGAGTFPWVLAITTPYSDEAQRSAFFARQRDELTQLGLLSSDGVVNPAVAEWIKVVCFPERWLDLRYVGPGTGNGGEDLLRGIVAQSAGIMGKAGKAHPSFNTVVALRNAQLVTFTAMDIDDPRALVPVLGVGLSARPPARFEEFSMPMRVGARADERLRSGESLDEVLDYLGIPVSARPVVQAVFSGPRSYVEIVAGCNRDGEHTTTDVGLSIVDTTAGRVLVSPSRAFDGEWVSTFSAGTPFATAVAIDQLIANLPDGQWFPGQRLSRDFSSQPS
- stoichiometry N: 1
